The results in this text go back to patent publication CN115232210A (SHANGDONG NEW TIME PHARM PROD, dated 2022).

In assay [1] the target is T1, HEK293T细胞表达的人CD40 (human, UniProt P25942 21-277).
T1 construct: whole, on cells; also called HEK293T-huCD40
Briefly: flow cytometry on 293T-huCD40 cells. (A flow cytometer gives signals particle by particle.)

In assay [2] the target is T2, 重组人CD40-his蛋白 (human, UniProt P25942 21-193).
T2 construct: extracellular domain; Recombinant protein; also called 人CD40(ECD)-his; huCD40-his; not shown: his tag
Description: BLI (Fortebio Blitz), antibody on AMC sensor, huCD40-his 6.25-200 nM. (BLI is a label-free optical method that tracks binding on a fibre tip over time.)

T2 sequence (P25942 21-193): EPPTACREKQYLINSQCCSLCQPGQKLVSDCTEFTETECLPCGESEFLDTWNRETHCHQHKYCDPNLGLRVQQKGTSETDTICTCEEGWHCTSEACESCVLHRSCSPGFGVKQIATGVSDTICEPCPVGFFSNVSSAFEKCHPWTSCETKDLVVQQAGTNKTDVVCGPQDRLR
T1 sequence (P25942 21-277): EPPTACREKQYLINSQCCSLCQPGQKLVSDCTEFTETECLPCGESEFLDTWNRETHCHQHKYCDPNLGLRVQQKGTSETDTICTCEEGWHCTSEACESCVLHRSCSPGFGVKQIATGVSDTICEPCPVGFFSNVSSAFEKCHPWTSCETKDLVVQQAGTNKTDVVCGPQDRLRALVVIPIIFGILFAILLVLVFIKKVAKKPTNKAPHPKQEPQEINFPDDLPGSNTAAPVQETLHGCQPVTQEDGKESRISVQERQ

B1: 人源化抗体42 (antibody, human IgG1, kappa, V domains shown)
VH: QVQLQESGPGLVKPSQTLSLTCTVSGFSLTSYGVHWVRQHPGKGLEWLGMIWSGGSTDYNSAFISRLTISKDNSKSQVSLKLSSVTAADTAVYYCARVGGDYWGQGTTVTVSS
VL: DIVITQSPLSLPVTLGQPASITCRSSQSLVHSRGNTYLHWFQQRPGQSPRLLIYKVSNRFSGVPDRFSGSGSGTDFTLKISRVEAEDVGVYFCFQTTHVPWTFGQGTRLEIKR
notes: Humanized IgG1/kappa; also called 42D11-8-humanized; 42Humanized
As usually defined, the EC50 is the midpoint of the concentration-response curve. Low values mean greater potency, high ones weaker potency. Usually Kd stands for the free concentration of one partner at which half of the binding sites on the other are occupied at equilibrium, for simple one-to-one binding. A lower Kd goes with higher affinity. As a reminder, the koff is the first-order rate constant of dissociation. The low end stands for slow dissociation, the high end for fast dissociation. One may read the kon as the rate constant with which the complex forms. A high value points to faster complex formation. As to B1, the EC50 in assay [1] turned out to be 0.251 µg/mL. Further, in assay [2], binding was characterised by a dissociation constant (Kd) of 33.2 nM, the off-rate (koff) worked out at 0.00312 s⁻¹ and the kon was 94000 M⁻¹ s⁻¹.

B2: 人源化抗体31 (antibody, human IgG1, kappa, V domains shown)
VH: QVQLQESGPGLVKPSETLSLTCTVSGFSLTSYSVHWVRQPPGKGLEWLGMIWSGGSTDYNAAFISRLTISKDNSKSQVSLKLSSVTAADTAVYYCARVGGDYWGQGTTVTVSS
VL: DVVMTQSPLSLPVTLGQPASITCRSSQSLLHSRGNTYLHWFQQRPGQSPRLLIYKVSNRFSGVPDRFSGSGSGTDFTLKISRVEAEDVGVYFCFQTTHVPWTFGQGTRLEIKR
notes: Humanized IgG1/kappa; also called 31A2-2-humanized; 31Humanized
The molecule B2 came in with a half-maximal effective concentration (EC50) in assay [1] of 0.297 µg/mL. Moreover, in assay [2], the equilibrium dissociation constant (Kd) worked out at 16.5 nM, the koff was found to be 0.00223 s⁻¹ and the kon amounted to 135000 M⁻¹ s⁻¹.

B3: APX005M (antibody, V domains shown)
VH: QVQLVESGGGVVQPGRSLRLSCAASGFSFSSTYVCWVRQAPGKGLEWIACIYTGDGTNYSASWAKGRFTISKDSSKNTVYLQMNSLRAEDTAVYFCARPDITYGFAINFWGPGTLVTVSS
VL: DIQMTQSPSSLSASVGDRVTIKCQASQSISSRLAWYQQKPGKPPKLLIYRASTLASGVPSRFSGSGSGTDFTLTISSLQPEDVATYYCQCTGYGISWPIGGGTKVEIK
In the case of B3, a half-maximal response in assay [1] (EC50) required 0.487 µg/mL. In assay [2], binding was characterised by a dissociation constant (Kd) of 38.2 nM, the koff is 0.00533 s⁻¹ and the kon was determined as 140000 M⁻¹ s⁻¹.

B4: 嵌合抗体C42 (antibody, human IgG1, kappa, V domains shown)
VH: QVQLKQSGPGLVQPSQSLSITCTVSGFSLTSYGVHWVRQSPGKGLEWLGMIWSGGSTDYNSAFISRLSISKDNFKSQVFFKMNSLQADDTAIYYCARVGGDYWGQGTTVTVSS
VL: DIVITQTPLSLPVSLGDPASISCRSSQSLVHSRGNTYLHWFLQKPGQSPKLLIYKVSNRFSGVPDRFSGSGSGTDFTLRISRLEAEDLGVYFCFQTTHVPWTFGGGTKLEIKR
notes: Mouse-human chimeric IgG1/kappa expressed in Expi-293 cells; also called 42Chimeric; 抗体42D11-8的嵌合抗体
As for B4, in assay [2], the equilibrium dissociation constant (Kd) worked out at 13.5 nM, the koff is 0.00524 s⁻¹ and the kon was 389000 M⁻¹ s⁻¹.

B5: 嵌合抗体C31 (antibody, human IgG1, kappa, V domains shown)
VH: QVQLKESGPGLVQPSQSLSITCTVSGFSLTNYSVHWVRQSPGKGLEWLGMIWSGGSTDYNAAFISRLSISKDNFKSQVFFKMNSLQADDTAIYYCARVGGDYWGQGTTVTVSS
VL: DVLMTQTPLSLPVSLGDPASISCRSSQSLLHSRGNTYLHWFLQKPGQSPKLLIYKVSNRFSGVPDRFSGSGSGTDFTLRISRVEAEDLGVYFCFQTTHVPWTFGGGTKLEIKR
notes: Mouse-human chimeric IgG1/kappa expressed in Expi-293 cells; also called 31Chimeric; 抗体31A2-2的鼠人嵌合抗体
In assay [2], B5 gave a Kd of 4.52 nM, a koff of 0.000395 s⁻¹ and a kon of 87500 M⁻¹ s⁻¹.
